Reference: patent publication US20130108636A1

Molecular target: gp120s
Assay: binding assay, method not stated

B1: m36d1 (VHH)
chain: QVQLVQSGGGLVQPGGSLRLSCAASAFDFSDYEMSWVRQAPGKGLEWIGEINDSGNTIYNPSLKSRVTISRDNSKNTLYLQMNTLRAEDTAIYYCAIYGGNSGGEYWGQGTLVTVSSGGGGSGGGGSGGGGSQVQLVQSGGGLVQPGGSLRLSCAASAFDFSDYEMSWVRQAPGKGLEWIGEINDSGNTIYNPSLKSRVTISRDNSKNTLYLQMNTLRAEDTAIYYCAIYGGNSGGEYWGQGTLVTVSS
fold decrease in binding compared to m36: 16 fold
